# Measurements from publication PMC6080606, “Transbilayer phospholipid movement facilitates the translocation of annexin across membranes” (Journal of Cell Science, 2018).
# T1: recombinant annexin A5, P08758
# T1 chain: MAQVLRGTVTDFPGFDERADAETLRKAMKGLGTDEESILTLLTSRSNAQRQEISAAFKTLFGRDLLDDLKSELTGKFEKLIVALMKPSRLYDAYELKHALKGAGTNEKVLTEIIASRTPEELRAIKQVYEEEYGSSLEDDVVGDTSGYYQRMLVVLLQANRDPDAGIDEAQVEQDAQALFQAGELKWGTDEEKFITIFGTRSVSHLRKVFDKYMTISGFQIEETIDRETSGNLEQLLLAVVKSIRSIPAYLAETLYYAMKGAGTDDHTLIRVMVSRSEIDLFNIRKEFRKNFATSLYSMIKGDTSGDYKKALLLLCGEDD
# T2: recombinant annexin A5 (UniProt P08758 1-320, Alexa Fluor 647 conjugated (the labelled copy held at a constant 20 µg/ml; position not stated); the titrated copy of the dimerisation assay is unlabelled)
# T2 construct: annexin A5 (annexin V), recombinant; The products were matched from the reagents list: the Alexa Fluor 647 conjugate is likely Biolegend 640912 and the unlabelled protein likely Novus NBP1-30265; Labelled and unlabelled copies are written as one molecule for the self-association; also called annexin V; annexin A5 conjugated to Alexa Fluor 647; source: recombinant, bought (reagents list: annexin-V …)
# T2 sequence (looked up): T1 chain
# B1: recombinant annexin A5, P08758 1-320 (natural protein)
# chain: T1 chain
# modifications: here or on the partner: Alexa Fluor 647 conjugated (the labelled copy held at a constant 20 µg/ml; position not stated); the titrated copy of the dimerisation assay is unlabelled; Alexa Fluor 647 conjugated (the labelled copy held at a constant 20 µg/ml; position not stated); the titrated copy of the dimerisation assay is unlabelled
# B2: cinnamycin (peptide, UniProt P29827 60-78, looked up)
# peptide: CRQSCSFGPFTFVCDGNTK
# notes: cinnamycin, a 19-amino-acid lantibiotic (the mature peptide cut from its precursor); source: bought: Santa Cruz Biotechnology (sc-391464)
# What was measured:
# [1] = biological target: T1, recombinant annexin A5, P08758; experiment: MST; Nanotemper Monolith NT.115; constant annexin A5-Alexa Fluor 647 (20 µg/ml) mixed with unlabelled recombinant annexin A5 from 7×10^−6 µg/ml to 100 µg/ml, 1 h at room temperature, with 5 µM Ca2+ (CaCl2); dimerisation (dimer to monomers), used as positive control; details: remark: other sources report otherwise
# [2] = biological target: T2, recombinant annexin A5; experiment: MST; Nanotemper Monolith NT.115; constant annexin A5-Alexa Fluor 647 (20 µg/ml) mixed with cinnamycin from 7×10^−8 mM to 1 mM, 1 h at room temperature; details: both partners purified
Binder,Kd [1],Kd [2]
B1,1000 nM,–
B2,–,614 µM
